From ChEMBL document CHEMBL5046279, “Discovery of a Partial Glucokinase Activator Clinical Candidate: Diethyl ((3-(3-((5-(Azetidine-1-carbonyl)pyrazin-2-yl)oxy)-5-isopropoxybenzamido)-1H-pyrazol-1-yl)methyl)phosphonate (BMS-820132)” (J Med Chem, 2022)

Substrate: CCOP(=O)(Cc1csc(NC(=O)c2cc(Oc3ccc(S(C)(=O)=O)cc3)cc(O[C@@H](C)COC)c2)n1)OCC
Settings: Homo sapiens; filed as activator
Description: Activation of human glucokinase assessed as decrease in glucose Km

B1: Hexokinase-4 (Homo sapiens), P35557 (protein)
chain: MLDDRARMEAAKKEKVEQILAEFQLQEEDLKKVMRRMQKEMDRGLRLETHEEASVKMLPTYVRSTPEGSEVGDFLSLDLGGTNFRVMLVKVGEGEEGQWSVKTKHQMYSIPEDAMTGTAEMLFDYISECISDFLDKHQMKHKKLPLGFTFSFPVRHEDIDKGILLNWTKGFKASGAEGNNVVGLLRDAIKRRGDFEMDVVAMVNDTVATMISCYYEDHQCEVGMIVGTGCNACYMEEMQNVELVEGDEGRMCVNTEWGAFGDSGELDEFLLEYDRLVDESSANPGQQLYEKLIGGKYMGELVRLVLLRLVDENLLFHGEASEQLRTRGAFETRFVSQVESDTGDRKQIYNILSTLGLRPSTTDCDIVRRACESVSTRAAHMCSAGLAGVINRMRESRSEDVMRITVGVDGSVYKLHPSFKERFHASVRRLTPSCEITFIESEEGSGRGAALVSAVACKKACMLGQ
  Km: 2400 µM
